In patent US20090276160A1:

Tests used:
Assay in all cases: cell-based or functional assay
[1] = target: Hepsin (residues 45-417) (human) (UniProt P05981)
[2] = target: Activated Protein C (Haematologic Technologies) (human) (UniProt P04070)
[3] = target: Hepatocyte growth factor activator (HGFA), activated 34 kDa short form, residues Val373 to Ser655 with a C-terminal poly-histidine tag (human) (UniProt Q04756)
[4] = target: Factor XIa (Haematologic Technologies) (human) (UniProt P03951)
[5] = target: Tissue factor/factor VIIa complex: human tissue factor (residues 1-219) with human recombinant FVIIa (human) (UniProt P13726)
[6] = target: Factor XIIa (American Diagnostica) (human) (UniProt P00748)
[7] = target: tPA (Activase, Genentech) (human) (UniProt P00750)
[8] = target: Chymotrypsin (Sigma) (human) (UniProt P17538)
uPA (Chemicon) (human) = uPA (Chemicon) (human) (UniProt P00749)
[9] = target: T1, Matriptase (residues 615-855) (human) (UniProt Q9Y5Y6)
T1 sequence (looked up): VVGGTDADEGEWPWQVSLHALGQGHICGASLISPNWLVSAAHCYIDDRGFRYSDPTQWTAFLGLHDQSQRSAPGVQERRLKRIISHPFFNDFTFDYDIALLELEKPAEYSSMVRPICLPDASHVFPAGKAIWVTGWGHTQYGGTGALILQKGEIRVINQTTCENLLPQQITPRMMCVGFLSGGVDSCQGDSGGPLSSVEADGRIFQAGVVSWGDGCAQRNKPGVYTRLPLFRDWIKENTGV

[10] = target: Bovine trypsin (Worthington) (bovine) (UniProt P00760)
[11] = target: Plasmin (Haematologic Technologies) (human) (UniProt P00747)
[12] = target: Factor Xa (Haematologic Technologies) (human) (UniProt P00742)
[13] = target: Thrombin (Haematologic Technologies) (human) (UniProt P00734)
[14] = target: T2, Complement factor C1s (Calbiochem) (human) (UniProt P09871)
T2 sequence (looked up): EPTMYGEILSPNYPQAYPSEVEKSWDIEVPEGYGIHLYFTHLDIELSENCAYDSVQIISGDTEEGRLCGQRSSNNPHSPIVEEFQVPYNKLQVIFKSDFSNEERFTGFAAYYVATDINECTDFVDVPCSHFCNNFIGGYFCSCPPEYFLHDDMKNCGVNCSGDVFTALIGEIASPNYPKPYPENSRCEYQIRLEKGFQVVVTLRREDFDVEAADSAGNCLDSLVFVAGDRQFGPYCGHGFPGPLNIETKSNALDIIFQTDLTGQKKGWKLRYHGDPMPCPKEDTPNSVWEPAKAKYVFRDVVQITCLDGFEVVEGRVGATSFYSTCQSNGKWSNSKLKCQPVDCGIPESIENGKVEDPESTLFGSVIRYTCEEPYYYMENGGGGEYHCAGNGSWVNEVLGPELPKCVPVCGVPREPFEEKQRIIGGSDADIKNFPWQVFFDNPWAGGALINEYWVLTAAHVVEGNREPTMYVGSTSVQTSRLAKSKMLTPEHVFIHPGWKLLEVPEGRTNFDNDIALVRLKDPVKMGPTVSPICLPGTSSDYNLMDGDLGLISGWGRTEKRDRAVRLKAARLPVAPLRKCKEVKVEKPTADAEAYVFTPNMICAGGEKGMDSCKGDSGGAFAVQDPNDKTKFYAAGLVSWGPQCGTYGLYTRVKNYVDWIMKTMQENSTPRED

[15] = target: Plasma kallikrein (American Diagnostica) (human) (UniProt P03952)
Plasma kallikrein (American Diagnostica) (human), sequence (P03952 20-638 limits assumed): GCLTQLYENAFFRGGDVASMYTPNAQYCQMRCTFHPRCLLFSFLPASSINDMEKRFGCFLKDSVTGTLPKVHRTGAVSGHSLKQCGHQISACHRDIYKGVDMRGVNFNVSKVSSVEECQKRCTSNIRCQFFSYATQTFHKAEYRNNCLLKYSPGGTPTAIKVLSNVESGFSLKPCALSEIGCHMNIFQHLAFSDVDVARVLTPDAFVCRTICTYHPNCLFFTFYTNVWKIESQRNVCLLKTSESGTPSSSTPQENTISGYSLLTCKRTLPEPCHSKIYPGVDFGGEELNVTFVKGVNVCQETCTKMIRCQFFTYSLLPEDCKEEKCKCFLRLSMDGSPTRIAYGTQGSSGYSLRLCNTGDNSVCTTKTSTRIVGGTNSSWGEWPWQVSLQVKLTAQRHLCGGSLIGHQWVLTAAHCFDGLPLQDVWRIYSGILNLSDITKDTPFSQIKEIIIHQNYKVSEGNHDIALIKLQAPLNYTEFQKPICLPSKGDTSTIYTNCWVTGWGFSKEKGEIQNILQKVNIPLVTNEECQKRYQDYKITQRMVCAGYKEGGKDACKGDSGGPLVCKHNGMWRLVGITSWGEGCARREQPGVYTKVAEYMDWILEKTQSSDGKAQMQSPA

sHAI-1B, soluble HAI-1B ectodomain, sequence (O43278 36-465 limits assumed): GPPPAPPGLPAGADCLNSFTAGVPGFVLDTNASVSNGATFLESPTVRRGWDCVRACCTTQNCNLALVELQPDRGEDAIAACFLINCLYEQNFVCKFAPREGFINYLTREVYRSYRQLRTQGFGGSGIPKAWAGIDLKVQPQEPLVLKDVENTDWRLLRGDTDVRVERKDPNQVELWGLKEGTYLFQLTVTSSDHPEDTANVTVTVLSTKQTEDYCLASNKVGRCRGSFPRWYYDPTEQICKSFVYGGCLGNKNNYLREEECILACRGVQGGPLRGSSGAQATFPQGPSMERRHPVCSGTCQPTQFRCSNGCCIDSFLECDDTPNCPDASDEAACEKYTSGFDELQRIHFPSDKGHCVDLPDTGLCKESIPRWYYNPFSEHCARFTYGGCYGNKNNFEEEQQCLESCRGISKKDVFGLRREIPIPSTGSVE
Plasmin (Haematologic Technologies) (human), sequence (P00747 97-810 limits assumed): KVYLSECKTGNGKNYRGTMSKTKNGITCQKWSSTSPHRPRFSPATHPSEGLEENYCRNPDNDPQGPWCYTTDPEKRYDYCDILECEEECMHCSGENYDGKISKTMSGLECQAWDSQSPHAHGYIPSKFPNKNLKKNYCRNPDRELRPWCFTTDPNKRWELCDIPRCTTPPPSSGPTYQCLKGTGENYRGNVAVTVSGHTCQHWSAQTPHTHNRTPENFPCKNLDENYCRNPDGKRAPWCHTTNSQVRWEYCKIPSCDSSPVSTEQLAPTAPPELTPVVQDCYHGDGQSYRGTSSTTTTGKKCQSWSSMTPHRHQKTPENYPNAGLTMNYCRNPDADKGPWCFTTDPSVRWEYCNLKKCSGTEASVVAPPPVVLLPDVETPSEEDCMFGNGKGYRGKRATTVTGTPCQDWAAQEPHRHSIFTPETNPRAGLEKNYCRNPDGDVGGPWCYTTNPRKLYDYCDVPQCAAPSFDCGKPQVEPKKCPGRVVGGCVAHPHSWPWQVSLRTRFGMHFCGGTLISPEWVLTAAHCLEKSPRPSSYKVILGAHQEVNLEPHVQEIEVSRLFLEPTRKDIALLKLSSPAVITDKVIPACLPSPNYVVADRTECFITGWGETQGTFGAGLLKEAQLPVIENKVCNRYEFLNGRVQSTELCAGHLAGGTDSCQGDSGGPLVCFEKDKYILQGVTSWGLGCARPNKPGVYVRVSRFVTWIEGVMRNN
Hepatocyte growth factor activator (HGFA), activated 34 kDa short form, residues Val373 to Ser655 with a C-terminal poly-histidine tag (human), sequence (Q04756 373-407, chain 1 of 2): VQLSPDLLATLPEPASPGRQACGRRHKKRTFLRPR
Hepatocyte growth factor activator (HGFA), activated 34 kDa short form, residues Val373 to Ser655 with a C-terminal poly-histidine tag (human), sequence (Q04756 408-655, chain 2 of 2): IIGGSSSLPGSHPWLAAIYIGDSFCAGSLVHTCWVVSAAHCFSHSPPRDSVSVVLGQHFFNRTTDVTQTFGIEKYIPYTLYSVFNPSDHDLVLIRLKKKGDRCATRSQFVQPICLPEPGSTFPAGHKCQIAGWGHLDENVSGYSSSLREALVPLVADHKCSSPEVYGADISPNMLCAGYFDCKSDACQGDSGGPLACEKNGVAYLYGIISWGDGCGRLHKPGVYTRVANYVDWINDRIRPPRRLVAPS
Hepsin (residues 45-417) (human), sequence (P05981 45-417 limits assumed): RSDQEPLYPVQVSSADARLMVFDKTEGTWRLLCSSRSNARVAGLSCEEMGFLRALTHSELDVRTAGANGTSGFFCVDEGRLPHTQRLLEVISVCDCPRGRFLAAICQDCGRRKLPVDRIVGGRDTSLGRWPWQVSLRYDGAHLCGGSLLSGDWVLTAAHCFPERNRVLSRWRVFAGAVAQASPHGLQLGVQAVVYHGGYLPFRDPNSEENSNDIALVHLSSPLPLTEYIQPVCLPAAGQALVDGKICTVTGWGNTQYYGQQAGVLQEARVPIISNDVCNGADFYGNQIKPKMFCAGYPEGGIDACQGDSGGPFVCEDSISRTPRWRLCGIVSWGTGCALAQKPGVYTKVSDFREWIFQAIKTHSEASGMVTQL
Bovine trypsin (Worthington) (bovine), sequence (P00760 24-246): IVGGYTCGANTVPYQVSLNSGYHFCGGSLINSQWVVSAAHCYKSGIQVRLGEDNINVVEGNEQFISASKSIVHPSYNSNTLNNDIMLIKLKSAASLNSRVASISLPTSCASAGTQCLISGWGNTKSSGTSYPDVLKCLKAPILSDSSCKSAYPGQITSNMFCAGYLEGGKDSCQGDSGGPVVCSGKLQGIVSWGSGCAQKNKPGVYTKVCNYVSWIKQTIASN
tPA (Activase, Genentech) (human), sequence (P00750 36-562 limits assumed): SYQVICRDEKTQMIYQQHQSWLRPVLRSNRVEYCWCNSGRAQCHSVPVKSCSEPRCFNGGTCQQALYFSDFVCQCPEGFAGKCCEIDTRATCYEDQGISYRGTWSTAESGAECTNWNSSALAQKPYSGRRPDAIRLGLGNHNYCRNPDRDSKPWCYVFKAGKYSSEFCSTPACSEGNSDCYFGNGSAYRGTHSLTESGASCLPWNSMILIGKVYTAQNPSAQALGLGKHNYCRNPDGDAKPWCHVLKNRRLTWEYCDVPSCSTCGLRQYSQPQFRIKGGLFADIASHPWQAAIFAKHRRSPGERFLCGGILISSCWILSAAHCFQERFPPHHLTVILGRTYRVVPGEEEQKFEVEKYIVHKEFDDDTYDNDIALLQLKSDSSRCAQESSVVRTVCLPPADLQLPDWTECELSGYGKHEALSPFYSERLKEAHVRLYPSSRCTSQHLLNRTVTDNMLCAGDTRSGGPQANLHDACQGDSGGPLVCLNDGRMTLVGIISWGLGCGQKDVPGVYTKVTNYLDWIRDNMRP
Chymotrypsin (Sigma) (human), sequence (P17538 19-263): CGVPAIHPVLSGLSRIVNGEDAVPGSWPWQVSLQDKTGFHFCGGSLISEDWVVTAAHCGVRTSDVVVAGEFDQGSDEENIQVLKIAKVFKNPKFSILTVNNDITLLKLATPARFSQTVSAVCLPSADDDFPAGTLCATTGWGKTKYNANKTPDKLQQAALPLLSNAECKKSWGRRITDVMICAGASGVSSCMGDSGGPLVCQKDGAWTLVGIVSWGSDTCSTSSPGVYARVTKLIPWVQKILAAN
Activated Protein C (Haematologic Technologies) (human), sequence (P04070 43-197, form in doubt, chain 1 of 2): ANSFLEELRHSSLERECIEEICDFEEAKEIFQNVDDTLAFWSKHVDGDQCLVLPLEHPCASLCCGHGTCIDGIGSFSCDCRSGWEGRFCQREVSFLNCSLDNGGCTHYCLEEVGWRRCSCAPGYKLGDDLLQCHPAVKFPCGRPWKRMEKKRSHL
Activated Protein C (Haematologic Technologies) (human), sequence (P04070 212-461, form in doubt, chain 2 of 2): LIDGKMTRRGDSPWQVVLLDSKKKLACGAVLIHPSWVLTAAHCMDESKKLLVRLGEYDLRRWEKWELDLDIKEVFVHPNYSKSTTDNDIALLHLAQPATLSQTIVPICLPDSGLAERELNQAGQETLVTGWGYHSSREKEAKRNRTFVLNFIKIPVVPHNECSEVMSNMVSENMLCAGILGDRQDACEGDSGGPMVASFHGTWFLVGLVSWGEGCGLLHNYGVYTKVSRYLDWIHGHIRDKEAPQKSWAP
Factor XIIa (American Diagnostica) (human), sequence (P00748 20-615 limits assumed): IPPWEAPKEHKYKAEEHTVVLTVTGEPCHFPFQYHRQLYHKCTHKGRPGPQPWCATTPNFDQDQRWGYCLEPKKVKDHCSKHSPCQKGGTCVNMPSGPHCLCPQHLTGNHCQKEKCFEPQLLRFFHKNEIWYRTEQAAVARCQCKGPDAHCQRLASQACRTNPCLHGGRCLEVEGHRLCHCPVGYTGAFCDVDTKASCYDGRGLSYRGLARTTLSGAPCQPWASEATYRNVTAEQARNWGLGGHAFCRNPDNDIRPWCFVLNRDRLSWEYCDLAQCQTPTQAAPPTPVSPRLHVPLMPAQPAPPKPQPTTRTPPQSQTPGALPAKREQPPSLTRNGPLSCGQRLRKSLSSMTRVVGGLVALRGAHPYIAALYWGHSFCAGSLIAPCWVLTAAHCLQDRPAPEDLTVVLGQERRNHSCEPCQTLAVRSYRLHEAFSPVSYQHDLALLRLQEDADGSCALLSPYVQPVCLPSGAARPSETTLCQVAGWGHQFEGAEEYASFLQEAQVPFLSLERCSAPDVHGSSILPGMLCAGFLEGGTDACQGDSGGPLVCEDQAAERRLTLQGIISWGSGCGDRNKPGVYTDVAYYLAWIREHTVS
Factor Xa (Haematologic Technologies) (human), sequence (P00742 41-179 limits assumed, chain 1 of 2): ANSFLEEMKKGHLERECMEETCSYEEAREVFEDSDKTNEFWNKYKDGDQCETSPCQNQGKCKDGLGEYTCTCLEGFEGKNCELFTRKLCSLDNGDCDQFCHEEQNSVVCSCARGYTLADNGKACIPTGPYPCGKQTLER
Factor Xa (Haematologic Technologies) (human), sequence (P00742 235-488 limits assumed, chain 2 of 2): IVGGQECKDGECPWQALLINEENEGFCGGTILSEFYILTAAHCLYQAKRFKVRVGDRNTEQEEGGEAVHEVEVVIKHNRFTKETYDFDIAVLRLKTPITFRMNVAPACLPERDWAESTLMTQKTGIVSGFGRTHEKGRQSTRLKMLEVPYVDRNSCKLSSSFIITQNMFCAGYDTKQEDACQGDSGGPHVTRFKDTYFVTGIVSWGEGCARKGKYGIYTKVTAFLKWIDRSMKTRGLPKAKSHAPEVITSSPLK

Substance: sHAI-1B, soluble HAI-1B ectodomain (from UniProt O43278 36-465)
- IC50 (nM), inhibition of enzyme activity on chromogenic substrate [1]: 21.1 nM
- IC50 (sHAI-1B)/IC50 (KD1) [1]: 3
- IC50 (nM), inhibition of enzyme activity on chromogenic substrate [2]: > 2000 nM
- IC50 (nM), inhibition of enzyme activity on chromogenic substrate [3]: 30.5 nM
- IC50 (sHAI-1B)/IC50 (KD1) [3]: 8
- IC50 (nM), inhibition of enzyme activity on chromogenic substrate [4]: > 2000 nM
- IC50 (nM), inhibition of enzyme activity on chromogenic substrate [5]: > 2000 nM
- IC50 (nM), inhibition of enzyme activity on chromogenic substrate [6]: > 2000 nM
- IC50 (nM), inhibition of enzyme activity on chromogenic substrate [7]: > 2000 nM
- IC50 (nM), inhibition of enzyme activity on chromogenic substrate [8]: > 2000 nM
- IC50 (nM), inhibition of enzyme activity on chromogenic substrate (uPA (Chemicon) (human)): > 2000 nM
- IC50 (nM), inhibition of enzyme activity on chromogenic substrate [9]: 16.5 nM
- IC50 (sHAI-1B)/IC50 (KD1) [9]: 10
- IC50 (nM), inhibition of enzyme activity on chromogenic substrate [10]: 2.4 nM
- IC50 (sHAI-1B)/IC50 (KD1) [10]: 3
- IC50 (nM), inhibition of enzyme activity on chromogenic substrate [11]: 399 nM
- IC50 (sHAI-1B)/IC50 (KD1) [11]: 3
- IC50 (nM), inhibition of enzyme activity on chromogenic substrate [12]: > 2000 nM
- IC50 (nM), inhibition of enzyme activity on chromogenic substrate [13]: > 2000 nM
- IC50 (nM), inhibition of enzyme activity on chromogenic substrate [14]: > 2000 nM
- IC50 (nM), inhibition of enzyme activity on chromogenic substrate [15]: 686 nM
- IC50 (sHAI-1B)/IC50 (KD1) [15]: 33
